Assay results reported in patent US20050214287A1 (published 2005).

B1: I-TAC (mouse) (ligand, UniProt Q9JHH5 22-100, looked up)
chain: FLMFKQGRCLCIGPGMKAVKMAEIEKASVIYPSNGCDKVEVIVTMKAHKRQRCLDPRSKQARLIMQAIEKKNFLRRQNM
notes: also called CXCL11

Assays:
CXCR4 (human) = CXCR4 (human) (UniProt P61073); assay: competition of 125I SDF-1α on CEM-NKr cells
CXCR4 = target: T1, CXCR4 (human, UniProt P61073 1-352); assay: displacement of 125I SDF-1α on CEM-NKr cells, DisplaceMax panel
T1 construct: whole, on cells; also called the SDF-1 receptor expressed on CEM-NKr; the hallmark SDF-1 receptor
T1 sequence (P61073 whole entry): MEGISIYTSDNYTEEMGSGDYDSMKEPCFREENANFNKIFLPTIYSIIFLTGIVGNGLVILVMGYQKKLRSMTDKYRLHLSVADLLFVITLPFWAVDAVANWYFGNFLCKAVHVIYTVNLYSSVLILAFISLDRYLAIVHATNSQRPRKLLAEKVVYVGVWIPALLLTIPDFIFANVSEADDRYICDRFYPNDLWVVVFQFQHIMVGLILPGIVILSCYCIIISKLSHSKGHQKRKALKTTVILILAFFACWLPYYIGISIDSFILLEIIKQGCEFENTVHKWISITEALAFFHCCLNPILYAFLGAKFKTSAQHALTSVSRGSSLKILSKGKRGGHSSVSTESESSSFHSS

Sequence of CXCR4 (human) (P61073 whole entry): as above

Molecule | IC50 (CXCR4 (human)) [nM] | binding result (CXCR4)
SDF-1β (human) (from UniProt P48061 22-93) (ligand) | 1.5 | –
B1 | – | no binding
